For assay [1], the target named is T1, human renalase (human, UniProt Q5VYX0 18-342, limits assumed). The assay is described as follows: cell-based or functional assay.
The target in assay [2] is T2, mouse renalase (mouse, UniProt A7RDN6 18-342, limits assumed). The assay is described as follows: cell-based or functional assay.
The target in assay [3] is T1, human renalase. Briefly: multipoint ELISA (A450), IgG dilution series on human renalase. (In general: In an ELISA, binding on a coated surface is turned into a signal by an enzyme label.)
Assay [4] addresses T2, mouse renalase. The assay is described as follows: multipoint ELISA (A450), IgG dilution series on mouse renalase.
In assay [5] the target is T3, peptide 3A conjugated to BSA.
T3 construct: Renalase-2 specific peptide; also called 3A5; not shown: BSA carrier, chemically conjugated via the cysteine
T3 peptide: PSAGVILGC(BSA)
The assay is described as follows: ELISA on peptide antigen. The method, then:
(§1) Peptide-Antigen Specificity ELISA: Bovine serum albumin (BSA)-conjugated renalase peptide antigen, diluted to 100 ng/well in PBS, was bound to a 96 well microtiter plate by overnight incubation at 4° C. The plate was blocked with a solution of 8% NFDM in PBS for one hour at 33° C. The peptide antigen was probed with a dilution series of the antibody raised against it, or with an antibody raised against a different antigen. The starting concentration of antibody was typically 5 μg/mL, with two-fold dilution steps prepared in PBS containing Tween-20 to 0.05% (PBST). After one hour incubation at 33° C., the plate was rinsed three times with PBST. Antibody binding was assayed by adding HRP-conjugated anti-rabbit IgG at 50 ng/mL, 50 μL per well. The plate was incubated at room temperature for 40 minutes. After incubation, the plate was washed three times with PBST and once with PBS. The HRP substrate 3, 3′, 5, 5′-tetramethylbenzidine (TMB) was added to 100 μL per well, and plate was incubated for approximately 5 minutes at room temperature. To stop the reaction, 100 μL 2 N […] was added to each well. The plate was read at 450 nm in a spectrophotometer.
(§2) Renalase peptides used for immunization were synthesized, then conjugated to bovine serum albumin (BSA). […] The plate was read at 450 nm in a spectrophotometer after reaction of HRP with the substrate TMB. […]

Assay [6] addresses T4, 1F peptide conjugated to BSA.
T4 construct: Renalase peptide present only in renalase-1; also called 1F-BSA protein; 1F antigen; not shown: BSA carrier, chemically conjugated via the cysteine
T4 peptide: C(BSA)VLEALKNYI
Briefly: ELISA on coated 1F peptide-BSA conjugate, antibody dilution series, anti-rabbit IgG-HRP. The method, then:
as §1, §2

Assay [7] addresses T5, renalase-2 (recombinant protein) (human, UniProt Q5VYX0 18-293).
T5 construct: Bacterially expressed and coated on ELISA plates; also called renalase-2 isoform
Briefly: ELISA on coated renalase-2, antibody dilution series (axis: log (ng/ml) supe), anti-rabbit IgG-HRP. The protocol:
Bacterially-expressed renalase-1 and 2 isoforms, were diluted to 100 ng/well in PBS and bound to a 96 well microtiter plate. The plate was blocked with a solution of 8% NFDM in PBS for one hour at 33° C. The renalase proteins were probed with a dilution series of the antibodies 1D-28-4, 1D-37-10, 1F-42-7, 1F-26-1 and 3A5-2. The starting concentration of antibody was typically 1μg/mL, with two-fold dilution steps prepared in PBS containing Tween-20 to 0.05% PBST. After one hour incubation at 33° C., the plate was rinsed three times with PBST. Antibody binding was assayed by adding HRP-conjugated anti-rabbit IgG at 50 ng/mL, 50μL per well. The plate was incubated at room temperature for 40 minutes. After incubation, the plate was washed three times with PBST and once with PBS. The HRP substrate 3, 3′, 5, 5′-tetramethylbenzidine (TMB) was added to 100 μL per well, and plate was incubated for approximately 5 minutes at room temperature. To stop the reaction, 100 μL 2 N H₂SO₄ was added to each well. The plate was read at 450 nm in a spectrophotometer.

Assay [8] has as its target T6, renalase-1 (full-length recombinant protein) (human, UniProt Q5VYX0 18-342, limits assumed).
T6 construct: Coated on ELISA plates as bacterially expressed renalase-1; Injected as purified recombinant renalase-1 in the Biacore assay; also called renalase-1 protein; RNLS
The assay is described as follows: competition ELISA on coated renalase-1: unconjugated 1F 42-7 titrated against a constant amount of biotinylated 1F 26-1, NeutrAvidin-HRP [panel A]. The protocol: (§3) Specificity of Epitope Binding: Bacterially-expressed renalase isoforms, diluted to 100 ng/well in PBS, were bound to a 96 well microtiter plate by overnight incubation at 4° C. The plate was blocked with a solution of 8% NFDM in PBS for one hour at 33° C. The renalase protein was probed with a dilution series of an unconjugated antibody, typically starting at 1 μg/mL, mixed with a different biotinylated antibody. […] Both antibodies were mixed together in PBST and applied as one addition of 50μL per well. After one hour incubation at 33° C., the plate was rinsed three times with PBST. Binding of the biotinylated antibody to renalase was assayed by adding HRP-conjugated Neutravidin (HRP-NA) at 0.4 ng/mL, 50 μL per well. The plate was incubated at room temperature for 40 minutes. After incubation, the plate was washed three times with PBST and once with PBS. The HRP substrate 3, 3′, 5, 5′-tetramethylbenzidine (TMB) was added to 100 μL per well, and plate was incubated for approximately 5 minutes at room temperature. To stop the reaction, 100 μL 2 N H2504 was added to each well. The plate was read at 450 nm in a spectrophotometer.
(§4) Bacterially-expressed renalase-1, diluted to 100ng/well in PBS, was bound to a 96 well microtiter plate by overnight incubation at 4° C. […]

In assay [9] the target is T6, renalase-1 (full-length recombinant …). Briefly: competition ELISA on coated renalase-1: unconjugated 1D 28-4 titrated against a constant amount of biotinylated 1D 37-10, NeutrAvidin-HRP [panel A]. The method, then:
as §3, §4

Ends that are not written are not given here. BSA = bovine serum albumin (carrier protein)

T1 sequence (Q5VYX0 18-342 limits assumed): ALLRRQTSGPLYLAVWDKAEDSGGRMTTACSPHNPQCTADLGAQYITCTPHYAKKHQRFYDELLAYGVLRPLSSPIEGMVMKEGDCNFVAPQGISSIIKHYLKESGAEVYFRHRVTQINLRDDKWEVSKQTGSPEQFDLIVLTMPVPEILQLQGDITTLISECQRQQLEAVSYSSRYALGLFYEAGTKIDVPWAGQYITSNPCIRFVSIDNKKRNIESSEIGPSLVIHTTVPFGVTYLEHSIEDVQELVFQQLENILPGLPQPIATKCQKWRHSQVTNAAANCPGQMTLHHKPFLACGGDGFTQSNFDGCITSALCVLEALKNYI
T2 sequence (A7RDN6 18-342 limits assumed): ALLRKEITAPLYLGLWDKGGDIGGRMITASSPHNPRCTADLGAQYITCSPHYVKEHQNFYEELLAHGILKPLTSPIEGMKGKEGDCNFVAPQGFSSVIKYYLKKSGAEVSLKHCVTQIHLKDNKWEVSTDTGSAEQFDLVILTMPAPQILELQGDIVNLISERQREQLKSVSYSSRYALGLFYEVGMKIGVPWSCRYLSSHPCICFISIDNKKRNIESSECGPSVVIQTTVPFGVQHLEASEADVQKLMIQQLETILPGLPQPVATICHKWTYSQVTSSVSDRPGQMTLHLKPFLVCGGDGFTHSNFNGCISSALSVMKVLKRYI
T6 sequence (Q5VYX0 18-342 limits assumed): as the sequence (Q5VYX0 18-342 limits assumed) above
T5 sequence (Q5VYX0 other isoform, or with tags, fused parts or gaps limits assumed): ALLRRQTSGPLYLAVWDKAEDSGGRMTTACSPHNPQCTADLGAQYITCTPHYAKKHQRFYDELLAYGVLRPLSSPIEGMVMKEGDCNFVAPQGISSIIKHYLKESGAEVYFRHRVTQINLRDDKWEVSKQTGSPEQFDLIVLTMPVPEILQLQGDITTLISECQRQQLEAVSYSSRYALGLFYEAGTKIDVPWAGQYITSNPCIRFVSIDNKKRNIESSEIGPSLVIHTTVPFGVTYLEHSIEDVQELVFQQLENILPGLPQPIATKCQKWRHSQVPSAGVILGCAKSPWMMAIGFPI

B1: M28-K5 (humanized, affinity-matured variant of M28) (antibody, V domains shown)
VH: EVQLVESGGGLVQPGGSLRLSCAASGFNLSSFAVHWVRQAPGKGLEWVALISGRGTRFYADSVKGRFTISKDTSKNTAYLQMNSLRAEDTAVYYCARHWYSGGVVRLDAWGQGTLVTVSS
VL: DIQMTQSPSSLSASVGDRVTITCRASQSVYDNNNVAWYQQKPGKAPKLLIYGASTLYSGVPSRFSGSRSGTDFTLTISSLQPEDFATYYCLGEGPCSVTDCLIFGQGTKVEIKR
Consider B1, for which the “IC50 of % cell survival, BxPC3 (human pancreatic adenocarcinoma) cells” value (“IC50 of % cell survival, BxPC3” for short) in assay [1] worked out at 24.5 nM. Also, in [2], the “IC50 of % cell survival, YUMM1.7 (mouse melanoma) cells” value stood at 3760 nM.

B2: M28-K16 (humanized, affinity-matured variant of M28) (antibody, V domains shown)
VH: EVQLVESGGGLVQPGGSLRLSCAASGFNLSSFAVHWVRQAPGKGLEWVALISGRGTRFYADSVKGRFTISKDTSKNTAYLQMNSLRAEDTAVYYCARHWYSGGVVRLDAWGQGTLVTVSS
VL: DIQMTQSPSSLSASVGDRVTITCRASQSVYDNNNVAWYQQKPGKAPKLLIYGASTLYSGVPSRFSGSRSGTDFTLTISSLQPEDFATYYCLGEFSCSSADCFAFGQGTKVEIKR
notes: the residue limits are my own count
With B2, in [1], the “IC50 of % cell survival, BxPC3” value came to 1700 nM. For the same molecule, the “IC50 of % cell survival, YUMM1.7 (mouse melanoma) cells” value in assay [2] turned out to be 17.5 nM. Further, the “EC50 (read off the curve)” value was approximately 0.05 nM in assay [3] and approximately 0.06 nM in assay [4].

B3: M28-K13 (humanized, affinity-matured variant of M28) (antibody, V domains shown)
VH: EVQLVESGGGLVQPGGSLRLSCAASGFNLSSFAVHWVRQAPGKGLEWVALIGVRGSLYYADSVKGRFTISKDTSKNTAYLQMNSLRAEDTAVYYCARHWYSGGVVRLDAWGQGTLVTVSS
VL: DIQMTQSPSSLSASVGDRVTITCRASQSVYDNNNVAWYQQKPGKAPKLLIYGASTLYSGVPSRFSGSRSGTDFTLTISSLQPEDFATYYCLGEFSCSSADCFAFGQGTKVEIKR
Turning to B3, the “IC50 of % cell survival, BxPC3” value in assay [1] worked out at 25.5 nM. The “IC50 of % cell survival, YUMM1.7 (mouse melanoma) cells” value in assay [2] is 31.5 nM.

B4: M28-K14 (humanized, affinity-matured variant of M28) (antibody, V domains shown)
VH: EVQLVESGGGLVQPGGSLRLSCAASGFNLSSFAVHWVRQAPGKGLEWVALISGRGTRFYADSVKGRFTISKDTSKNTAYLQMNSLRAEDTAVYYCARYGYSGDVNRLDLWGQGTLVTVSS
VL: DIQMTQSPSSLSASVGDRVTITCRASQSVYDNNNVAWYQQKPGKAPKLLIYGASTLYSGVPSRFSGSRSGTDFTLTISSLQPEDFATYYCLGEGPCSVTDCLIFGQGTKVEIKR
notes: the residue limits are my own count; also called M28-14
As for B4, the “IC50 of % cell survival, YUMM1.7 (mouse melanoma) cells” value in assay [2] was 1.41 nM. Further, the “EC50 (read off the curve)” value in [3] is approximately 0.06 nM; in assay [4] it was approximately 0.08 nM.

B5: M28-K2 (humanized, affinity-matured variant of M28) (antibody, V domains shown)
VH: EVQLVESGGGLVQPGGSLRLSCAASGFNLSSFAVHWVRQAPGKGLEWVALIGVRGSLYYADSVKGRFTISKDTSKNTAYLQMNSLRAEDTAVYYCARHWYSGGVVRLDAWGQGTLVTVSS
VL: DIQMTQSPSSLSASVGDRVTITCRASQSVYDNNNVAWYQQKPGKAPKLLIYGASTLYSGVPSRFSGSRSGTDFTLTISSLQPEDFATYYCLGEGPCSVTDCLIFGQGTKVEIKR
As for B5, in assay [1], the “IC50 of % cell survival, BxPC3” value came out at 31.7 nM. The “IC50 of % cell survival, YUMM1.7 (mouse melanoma) cells” value in assay [2] was determined as 1330 nM.

B6: monoclonal antibody 3A-5-2 (antibody, V domains shown)
VH: QSLEESGGRLVTPGTPLTLTCTVSGFSLNNYHIYWVRQAPGKGLEYIGIIFNGGTYYARWTKGRFTISKTSTTVDLKMTSLTTEDTATYFCARGDGIWGPGTLVTVSL
VL: AQVLTQTPASVSAAVGGTVTINCQASQSVFNNNYLAWYQQKPGQPPKRLIYSASTLASGVSSRFKGSGSGTEFTLTMSGVECDDAATYYCAGSFDCNSGDCVAFGGGTEVVVKG
notes: Rabbit monoclonal from hybridoma, raised against the renalase-2 specific peptide 3A (3A5)
In the case of B6, the binding result in assay [5] was “binds”.

B7: monoclonal antibody 1F-26-1 (antibody, V domains shown)
VH: QSVKESEGGLFKPTDTLTLTCTVSGFSLSSYGVTWVRQAPGNGLEWIGLIGDRGTTFYASWAKSRSTITRNTNLNTVTLKMTRLTAADTATYFCARGSGYGARIWGPGTLVTVSS
VL: AQVLTQTPSPVSAAVGGTVTINCQSSQSVYKNNYLAWYQQKPGQPPKLLIYETSKLASGVPPRFSGSGSGTQFTLTISSVQCDDAATYYCQGGYSGVDFMAFGGGTEVVVKG
notes: Rabbit monoclonal from hybridoma, raised against the 1F peptide; also called IF 26-1
On to B7, for which, in assay [6], the “EC50 (read off the curve)” value was approximately 0.3 µg/mL. In assay [7], the binding result was “no binding (tested: 1000 ng/ml)”.

B8: monoclonal antibody 1F-42-7 (antibody, V domains shown)
VH: QSVKESEGGLFKPTDTLTLTCTVSGFSLTTYGVTWVRQAPGNGLEWIGLIGDRGTTYYASWVNGRSTITRNTNLNTVTLKMTRLTAADTATYFCARGSGYGARIWGPGTLVTVAS
VL: AQVLTQTPSPMSAALGGTVTINCQSSQTVYNNNYLSWYQQKPGQPPKLLIYETSKLSSGVPPRFSGSGSGTQFTLTISSVQCDDAATYYCQGGYSGVDFMAFGGGTEVVVKG
notes: Rabbit monoclonal from hybridoma, raised against the 1F peptide; Biotinylated in the biotin ELISA and Biacore assays; also called IF 42-7; M42
Consider B8, for which, in assay [6], the “EC50 (read off the curve)” value is approximately 0.3 µg/mL. The binding result in [7] is reported as “no binding (tested: 1000 ng/ml)”. In addition, the “IC50 (read off the curve)” value in [8] was approximately 1 µg/mL.

B9: monoclonal antibody 1D-28-4 (antibody, V domains shown)
VH: QSVEESGGRLVTPGTPLTLTCTVSGFSLSSFAVGWVRQAPGKGLEYIGIISSVGITRYASWAAGRFTISKTSTTVDLKITSPTTEDTATYFCARYGYSGDVNRLDLWGQGTLVTVSS
VL: AQVLTQTASPVSAAVGGTVTINCQASQSVYDNNNLAWYQQKPGQPPKQLIYGASTLASGVSSRFKGSGSGTQFTLTISGVQCDDAATYYCLGEFSCSSADCFAFGGGTEVVVKG
notes: also called m28-RNLS; Ren1D 28-4
In the case of B9, in assay [1], the “IC50 of % cell survival, BxPC3” value came to 1.5 nM. For the same molecule, the “IC50 of % cell survival, YUMM1.7 (mouse melanoma) cells” value in assay [2] is 70 nM. In addition, the “EC50 (read off the curve)” value in [3] is approximately 0.3 nM. The “IC50 (read off the curve)” value in [9] is approximately 2 µg/mL.

As usually defined, the EC50 (read off the curve) is the concentration needed to bring the measured effect to its halfway point. Low values mean an effect from little substance, high ones a need for much substance.

Source of the values: patent US20220348684A1 (YALE UNIVERSITY, published 2022).
